Experimental data reported in publication PMC8131360, “Phospholipid translocation captured in a bifunctional membrane protein MprF” (Nature Communications, 2021).

Target: the molecule itself
Assay: cryo-EM structure; full-length RtMprF purified in β-DDM or GDN, reconstituted with POPG and MSP1E3D1 (1:2:100) in lipid nanodiscs; 20 mM Tris-HCl pH 7.5, 300 mM NaCl; single-particle analysis, C2 symmetry imposed

B1: Multiple Peptide Resistance Factor from Rhizobium tropici (RtMprF) (natural protein, UniProt A0A6P1C618 1-869, looked up)
chain: MSSPIDLESADEELEERGGIVGLLNRYRALIVAVLTVAVFCIAAYAIYDLTTEVRYDDVVHALTTTKISSVLLALLFTGLSFASLIFYDQNALEYIGKRLPFPHVALTSFSAYAVGNTAGFGALSAGAIRYRAYTRLGLSPDDITRVIAFVTLAFGLGLASVGAMALLVIADEIGPLISVDGLWLRLIAIAILAALAFVVYAGRNGREVRIGPVAVRLPDSRTWSRQFLVTAFDIAASASVLYVLLPETSIGWPGFFAIYAIAVGLGVLSHVPAGFGVFETIIIAWLGSSVNEDAVLSSLVLYRVIYNVIPLVIAIAAISVAELRRFVDHPVASSMRRIGARLMPQLLSAFALLLGMMLVFSSVTPTPDHNLIVLSDYLPLSLVESAHFLSSLLGLAIIVAARGLSQRLDGAWWVSTFSALFALFFSLLKAIAIVEAGLLAFFVFSLVVSRRLFKRPASLLNQTLTAGWLTAIAVVCIGAIVVLFFVYRDVGYSNELWWQFEFADEAPRGLRAALGISIVSSAIAIFSLLRPATKRPEPVSDDAVARAVEIVRKQGVADANLVRMGDKSIMFSEKGDAFIMYGKQGRSWIALFDPVGPRQALPDLIWRFVETARAAGCRSVFYQISPALLSYCADAGLRAFKLGELAVVNLANFELKGGKWANLRQTASRAVRDGLEFAVIEPQDIPDVLDQLAHVSDTWLADHNAKEKSFSLGAFDPDYVCSQPVGVLKKDGKIVAFANILMTETKEEGSVDLMRFSPDAPKGSMDFLFVQILEYLKGEGFQRFNLGMAPLSGMSRRESAPVWDRVGGTVFEHGERFYNFKGLRAFKSKFHPEWQPRYLAVSGGVSPMIALMDATFLIGGGLKGVVRK
notes: MprF (mprF gene) from Rhizobium tropici, full-length protein of 869 amino acid residues; flippase domain (Subdomain 1 Leu24-Arg325, Subdomain 2 Ser334-Arg530) and synthase domain (Pro539-Gly860); also called RtMprF(DDM); RtMprF(GDN); source: E. coli C41(DE3), pET21b; purified (Ni-NTA in β-DDM or GDN) and reconstituted in POPG/MSP1E3D1 nanodiscs (Ni-NTA, SEC); also unpurified, in the E. coli …
  stoichiometry N: 2
